Experimental findings from patent publication US20100311696A1, “TOPICAL SKIN TREATMENT COMPOSITION” (priority 2002, published 2010) are described below.

A short description of series [1]: Skin penetration after topical application of the somatotropin composition. Format: in vivo. To be noted: composition topically applied. The procedure: (§1) A drug delivery composition formulated with somatotropin was formulated in one trial with 85% phosphatidylcholine to which lipoic acid and ascorbyl palmitate were added.
Series [2] in a line: Dispersion and stability of somatotropin in phosphatidylcholine. Format: physicochemical. To be noted: 85% phosphatidylcholine with lipoic acid and ascorbyl palmitate. As to the method:
as §1

Series [3] is described as follows: RP-HPLC and HPCE stability analyses of insulin standards and insulin compositions, Example 1. It counts as physicochemical. To be noted: stored at room temperature. As to the method:
This mixture was then divided in half, half of which was stored at 4° C., and the other half stored at room temperature.

The nature of series [4]: RP-HPLC and HPCE stability analyses of insulin standards and stable insulin compositions, Example 2. Format: physicochemical. To be noted: stored at room temperature.

Some results are limits rather than exact numbers.

For the substance “Somatotropin: Somatotropin (pituitary growth hormone) formulated with 85% phosphatidylcholine, lipoic acid and ascorbyl palmitate”, the skin penetration result in series [1] is recorded as “penetrate the skin well”. In addition, in series [2], the dispersion in phosphatidylcholine entry was “readily dispersed” and the stability in phosphatidylcholine result is listed as “remained stable”.
For “insulin standards: Insulin in 0.01 N HCl: 1 mg/ml Sigma insulin (Example 1), 5 mg/ml (Example 2)”, the “time at which denaturing started (RP-HPLC and HPCE)” value in series [3] is on record as not above 7 days; in series [4] it was not above 1 week.
